According to the supplement of paper PMC10724198:
± gives the standard deviation of the averaged measurements.
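Also: PSI is a weighted mean of sequencing reads over stability bins, variants kept only with over 10 reads, mCherry proximal and sfGFP distal, peptide attached via GGGS linker.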

The sequences below were run on Saccharomyces cerevisiae (assay: protein stability index of tFT-peptide fusion (C-terminal peptide) (PSI (0-1 scale)); higher = more stable (slower turnover)). Conditions: genetic background: wild type; temperature: 30 C.
PPPPSLPPPSRP was tested, and the protein stability index was 0.7125 ± 0.0063. With PPPPSPGPASPA the protein stability index was 0.716 ± 0.045. PPPPSTRPSYSP gave a protein stability index of 0.756 ± 0.23. With PPPPTALPHPDL the protein stability index was 0.604 ± 0.012. PPPPTPHRSPLL was tested, and the protein stability index was 0.598 ± 0.029. For PPPPTQPPARPP, the protein stability index was 0.68 ± 0.014. Work on PPPPTRSRRNLP yielded a protein stability index of 0.705 ± 0.047. PPPPVPPLYLPP showed a protein stability index of 0.684 ± 0.017. PPPRLAPTLLPA gave a protein stability index of 0.5999 ± 0.0046. PPPRPDPPSLLD showed a protein stability index of 0.545 ± 0.0085. In the case of PPPRPHTPPQLA, the protein stability index is reported as 0.708 ± 0.019. PPPRPPLALSPP showed a protein stability index of 0.646 ± 0.032. For PPPRPPRPPCPF, the protein stability index was 0.732 ± 0.059. PPPRPSPLSSSL showed a protein stability index of 0.678 ± 0.094. PPPRRPPSPPSP showed a protein stability index of 0.729 ± 0.021. Work on PPPRTPGCPIPP yielded a protein stability index of 0.5737 ± 0.0032. PPPSLPATPIPP showed a protein stability index of 0.656 ± 0.055. PPPSPAPCPPSS gave a protein stability index of 0.777 ± 0.043. PPPSPDPPLTPF gave a protein stability index of 0.723 ± 0.06. Work on PPPSPFLPSPFR yielded a protein stability index of 0.7066 ± 0.0061. For PPPSPPPLPDPH, the protein stability index was 0.697 ± 0.079. Work on PPPSPPSPHAPP yielded a protein stability index of 0.643 ± 0.1. Sequence PPPSRPLLPFPP has a protein stability index of 0.706 ± 0.012. Work on PPPSRTPPLNPR yielded a protein stability index of 0.741 ± 0.096. PPPSSILSPSTS was tested, and the protein stability index was 0.659 ± 0.046. With PPPSSPPPLPLP the protein stability index was 0.681 ± 0.017. PPPTAPPTTTTR was tested, and the protein stability index was 0.696 ± 0.055. For PPPTAPSLSSPS, the protein stability index was 0.688 ± 0.047. Sequence PPPTPPRPPPLP has a protein stability index of 0.7059 ± 0.0022. Sequence PPPTPRIPRPLR has a protein stability index of 0.717 ± 0.02. For PPPTPRRPPCHT, the protein stability index was 0.668 ± 0.045. Sequence PPPTVRLSCVPP has a protein stability index of 0.794 ± 0.031. For PPPVLPPPPVSP, the protein stability index was 0.719 ± 0.03. Sequence PPPVLSPRFPVL has a protein stability index of 0.731 ± 0.14. In the case of PPPVRFPSLPLA, the protein stability index is reported as 0.8189 ± 0.0061. For PPPVVLPSTLLS, the protein stability index was 0.6665 ± 0.0014. PPRAHQSCPCRR was tested, and the protein stability index was 0.719 ± 0.055. PPRALPPPLPLP gave a protein stability index of 0.72 ± 0.083. PPRCHPPPPFPP gave a protein stability index of 0.6466 ± 0.0047. With PPRGCLYFSRPP the protein stability index was 0.739 ± 0.095. With PPRGPPPPPADP the protein stability index was 0.7 ± 0.022. PPRHPSPGLVPT gave a protein stability index of 0.722 ± 0.04. With PPRLLATVTRGT the protein stability index was 0.654 ± 0.025. In the case of PPRLVPPLPPPL, the protein stability index is reported as 0.635 ± 0.048. In the case of PPRPAPTSFKRG, the protein stability index is reported as 0.718 ± 0.037. With PPRPPPLLPRTL the protein stability index was 0.707 ± 0.014. For PPRPPPPPPAPL, the protein stability index was 0.688 ± 0.019. PPRPPPPRPPPL was tested, and the protein stability index was 0.742 ± 0.028. Sequence PPRPRSARLFLR has a protein stability index of 0.728 ± 0.05. For PPRRPPPPPPLP, the protein stability index was 0.7168 ± 0.0045. For PPRVVPDISTSL, the protein stability index was 0.699 ± 0.039. With PPSATPPHPPPS the protein stability index was 0.666 ± 0.052. PPSGSFLFSVHP was tested, and the protein stability index was 0.734 ± 0.016. For PPSLFRFPPPPR, the protein stability index was 0.709 ± 0.074. Work on PPSLPPHASPTP yielded a protein stability index of 0.762 ± 0.079. PPSNSFHSSIPY showed a protein stability index of 0.678 ± 0.02. PPSPAFSSSLPP showed a protein stability index of 0.635 ± 0.025. Work on PPSPAPHATARP yielded a protein stability index of 0.662 ± 0.062. PPSPFHPPPPER was tested, and the protein stability index was 0.551 ± 0.013. PPSPPILPPRPP gave a protein stability index of 0.687 ± 0.015. PPSPPPPSRPIH showed a protein stability index of 0.776 ± 0.021. Work on PPSPPPPYPAPP yielded a protein stability index of 0.679 ± 0.015. With PPSPPRPHFPSL the protein stability index was 0.739 ± 0.042. PPSPRPVPPPCH was tested, and the protein stability index was 0.705 ± 0.072. PPSPSFLPPPPP showed a protein stability index of 0.676 ± 0.024. PPSQLPPPPASD was tested, and the protein stability index was 0.746 ± 0.2. PPSSGPPSPSSL was tested, and the protein stability index was 0.578 ± 0.095. Sequence PPSSPPHSRRHG has a protein stability index of 0.664 ± 0.055. PPSVPSRLSHVL gave a protein stability index of 0.69 ± 0.034. For PPTCRLQPYSRN, the protein stability index was 0.759 ± 0.013. For PPTLVPPFPTKV, the protein stability index was 0.742 ± 0.064. With PPTPPPPLPSSF the protein stability index was 0.77 ± 0.075. With PPTPRPHPPSRP the protein stability index was 0.758 ± 0.022. Sequence PPTPSAPHRTRI has a protein stability index of 0.732 ± 0.026. Sequence PPTPSPAPSPAP has a protein stability index of 0.601 ± 0.011. With PPTSHHHYHRQQ the protein stability index was 0.695 ± 0.053. Sequence PPVGPPFPPLPH has a protein stability index of 0.784 ± 0.13. PPVLAPCLPLTG was tested, and the protein stability index was 0.681 ± 0.067. Work on PPVLHSSEPPDS yielded a protein stability index of 0.707 ± 0.024. PPWPPLLPRPSP was tested, and the protein stability index was 0.666 ± 0.03. PQLCSPLITIGV gave a protein stability index of 0.5961 ± 0.0032. In the case of PQLLGWCVGPCR, the protein stability index is reported as 0.694 ± 0.024. In the case of PQPLNTLRLTSS, the protein stability index is reported as 0.671 ± 0.034. For PQSVMFFGAPVW, the protein stability index was 0.687 ± 0.034. In the case of PQTPPPLLPPSL, the protein stability index is reported as 0.671 ± 0.013. For PQTVAHPPPPPR, the protein stability index was 0.688 ± 0.04. Work on PRAGPLAALSLS yielded a protein stability index of 0.695 ± 0.026. With PRCIELASMRRP the protein stability index was 0.681 ± 0.068. For PRCVRFPPVTLL, the protein stability index was 0.7393 ± 0.0036. PRDQPPDGHASP gave a protein stability index of 0.6717 ± 0.002. Work on PREVGVYQQIRD yielded a protein stability index of 0.63 ± 0.019. PRFFCSGSSPLR showed a protein stability index of 0.721 ± 0.026. For PRFSFSGLPLPP, the protein stability index was 0.681 ± 0.11. With PRFSLFSTDHYY the protein stability index was 0.679 ± 0.16. In the case of PRGFVHLPPPYT, the protein stability index is reported as 0.756 ± 0.12. With PRGHLDEFCVVL the protein stability index was 0.705 ± 0.019. With PRGHPPIPPPLP the protein stability index was 0.69 ± 0.035. With PRGPPTPPLTSP the protein stability index was 0.669 ± 0.043. Work on PRGWAGGQITPR yielded a protein stability index of 0.686 ± 0.03. PRGYSASPNLTS gave a protein stability index of 0.716 ± 0.023. With PRIIPRLARPQS the protein stability index was 0.69 ± 0.014. Work on PRIKWKIQIIKK yielded a protein stability index of 0.668 ± 0.011. PRLPPPPTPPLP gave a protein stability index of 0.649 ± 0.16. Work on PRLPRRTTTIHG yielded a protein stability index of 0.71 ± 0.035. Work on PRLSPPRSPSPP yielded a protein stability index of 0.665 ± 0.0091. In the case of PRLSSPAATSPP, the protein stability index is reported as 0.709 ± 0.012. PRPAPHTGPSPG gave a protein stability index of 0.613 ± 0.029. PRPCASALPPHP showed a protein stability index of 0.712 ± 0.051. Sequence PRPCLPPDPPPS has a protein stability index of 0.654 ± 0.0071. PRPDSRTRLPRP was tested, and the protein stability index was 0.661 ± 0.019. Work on PRPGSTTPPAYR yielded a protein stability index of 0.7163 ± 0.0053. For PRPLTRPVPPLS, the protein stability index was 0.68 ± 0.13. For PRPNGLSTDDLE, the protein stability index was 0.729 ± 0.056. PRPPANILPSAP was tested, and the protein stability index was 0.713 ± 0.07. PRPPHLPPPVPS was tested, and the protein stability index was 0.7299 ± 0.0016. In the case of PRPPLPLFPSSL, the protein stability index is reported as 0.723 ± 0.048. Work on PRPPPHPPPSPL yielded a protein stability index of 0.50931 ± 0.00043. With PRPPPLPPPLPL the protein stability index was 0.5773 ± 0.0032. For PRPRLPVLPSPS, the protein stability index was 0.641 ± 0.098. PRPRPSPLPPPS gave a protein stability index of 0.751 ± 0.13. For PRPSPFIGLPFP, the protein stability index was 0.749 ± 0.067. Work on PRQAPPSLPSPP yielded a protein stability index of 0.697 ± 0.076. PRRFPCRLRLGF was tested, and the protein stability index was 0.702 ± 0.074. Work on PRSPARPPFPTP yielded a protein stability index of 0.6835 ± 0.0049. With PRSPPCPLPPPL the protein stability index was 0.65 ± 0.11. Sequence PRSRSHPLCSAP has a protein stability index of 0.813 ± 0.062. PRSSVPATPHRR gave a protein stability index of 0.72 ± 0.031. PRSTWPFRLFVR was tested, and the protein stability index was 0.531 ± 0.053. PRTAAFDSLLPT was tested, and the protein stability index was 0.688 ± 0.036. Work on PRVRSPLLSPPQ yielded a protein stability index of 0.606 ± 0.017. In the case of PRYSVRGQPRET, the protein stability index is reported as 0.728 ± 0.0061. For PSAFQCQWKTSA, the protein stability index was 0.6383 ± 0.0014. For PSAPFPPVYPLH, the protein stability index was 0.687 ± 0.017. For PSARASSRTAPS, the protein stability index was 0.661 ± 0.015. For PSASYLPCRSKL, the protein stability index was 0.7474 ± 0.0046. Work on PSCPAPPAARPL yielded a protein stability index of 0.74 ± 0.11. For PSCYDPCSPPPH, the protein stability index was 0.723 ± 0.047. Sequence PSDGCSPSSTGN has a protein stability index of 0.696 ± 0.076. PSEFGAGYVMGG was tested, and the protein stability index was 0.71 ± 0.017. PSELGAGYVMGG was tested, and the protein stability index was 0.6936 ± 0.0034. PSFHASSLSWFS showed a protein stability index of 0.745 ± 0.039. PSFLLPPLPPPT showed a protein stability index of 0.718 ± 0.0086. With PSHPPRHCPPAA the protein stability index was 0.6628 ± 0.0024. With PSHQRVRGLPSL the protein stability index was 0.697 ± 0.041. PSLLFHPAPFFP gave a protein stability index of 0.756 ± 0.085. In the case of PSLLHPPLPTSP, the protein stability index is reported as 0.657 ± 0.036. With PSLLSMHSFSLC the protein stability index was 0.68 ± 0.014. For PSLPFPPSPPPC, the protein stability index was 0.7067 ± 0.0022. With PSLPLSPLSDSR the protein stability index was 0.717 ± 0.032. Work on PSLPPAYPSIAI yielded a protein stability index of 0.737 ± 0.067. For PSLSDPLAPPQG, the protein stability index was 0.757 ± 0.089. For PSLSPYPLQPRY, the protein stability index was 0.751 ± 0.034. Sequence PSLTLPPSPRFP has a protein stability index of 0.7585 ± 0.0029. For PSNSRPRASPAC, the protein stability index was 0.67 ± 0.039. PSPAPSGPAHHP showed a protein stability index of 0.667 ± 0.05. In the case of PSPLALRTPSFS, the protein stability index is reported as 0.692 ± 0.02. PSPLPMYPPPTF gave a protein stability index of 0.693 ± 0.0083. PSPLPVSAPLLP showed a protein stability index of 0.701 ± 0.039. PSPLTPAAPFPL was tested, and the protein stability index was 0.674 ± 0.056. In the case of PSPPAPPPETSP, the protein stability index is reported as 0.713 ± 0.031.
